From patent US9051392 (dated 2015) come the findings set out here.

The chains are these.
B1: HVEMΔCD:GFP (protein)
chain: LPSCKEDEYPVGSECCPKCSPGYRVKEACGELTGTVCEPCPPGTYIAHLNGLSKCLQCQMCDPAMGLRASRNCSRTENAVCGCSPGHFCIVQDGDHCAACRAYATSSPGQRVQKGGTESQDTLCQNCPPGTFSPNGTLEECQHQTKCSWLVTKAGAGTSSSHWV
B2: p60ΔCD K32A (protein)
chain: LVPHLGDREKRDSVCPQGKYIHPQNNSICCTACHKGTYLYNDCPGPGQDTDCRECESGSFTASENHLRHCLSCSKCRKEMGQVEISSCTVDRDTVCGCRKNQYRHYWSENLFQCFNCSLCLNGTVHLSCQEKQNTVCTCHAGFFLRENECVSCSNCKKSLECTKLCLPQIENVKGTEDSGTT
B3: p60ΔCD KY19/20AA (protein)
chain: B2 chain with K19A, Y20A, A32K
B4: Fas ligand (trimerized) (protein)
chain: PSPPPEKKELRKVAHLTGKSNSRSMPLEWEDTYGIVLLSGVKYKKGGLVINETGLYFVYSKVYFRGQSCNNLPLSHKVYMRNSKYPQDLVMMEGKMMSYCTTGQMWARSSYLGAVFNLTSADHLYVNVSELSLVNFEESQTFFGLYKL
B5: Fas deletion 1-43 (protein)
chain: QVTDINSKGLELRKTVTTVETQNLEGLHHDGQFCHKPCPPGERKARDCTVNGDEPDCVPCQEGKEYTDKAHFSSKCRRCRLCDEGHGLEVEINCTRTQNTKCRCKPNFFCNSTVCEHCDPCTKCEHGIIKECTLTSNTKCKEEGSRSN
B6: Fas deletion 1-66 (protein)
chain: B5 chain

In one test the target is T1, Fas (human, UniProt P25445).
T1 chain: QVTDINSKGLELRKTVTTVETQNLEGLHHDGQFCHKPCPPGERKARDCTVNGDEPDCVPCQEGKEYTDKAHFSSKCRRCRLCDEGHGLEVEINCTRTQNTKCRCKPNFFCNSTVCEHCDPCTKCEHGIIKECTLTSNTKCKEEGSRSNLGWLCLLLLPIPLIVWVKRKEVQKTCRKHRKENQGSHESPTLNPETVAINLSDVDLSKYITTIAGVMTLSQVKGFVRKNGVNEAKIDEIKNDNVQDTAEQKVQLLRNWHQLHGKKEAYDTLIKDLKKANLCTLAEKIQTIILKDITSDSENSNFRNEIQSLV
As to the kind of experiment: other (co-immunoprecipitation).

For the next test, the target named is T2, p60ΔCD-GFP-HA (human, UniProt P19438).
T2 chain: B2 chain with A32K
As to the kind of experiment: other (co-immunoprecipitation).

Test [1] addresses T3, Fas Pt 2 (deletion 52-96) (human, UniProt P25445).
T3 chain: B5 chain
As to the kind of experiment: FACS.

The target of the test “Fas deletion 1-66” is B6. Put plainly: FACS. On the technique in general: A flow cytometer gives signals particle by particle.
The target of a further test is T4, HA-Fas 1-210:GFP (human, UniProt P25445).
T4 chain: B5 chain
Put plainly: other (co-immunoprecipitation).

Positions count from the first letter of the chain named. In names and notes the source's numbering stands.

For B1, in the test with Fas, the binding result is reported as “no binding”.

B2: the binding result with p60ΔCD-GFP-HA was “no binding”.

In the case of B3, the binding result in the test with p60ΔCD-GFP-HA is “no binding”.

B4: the binding result (in test [1]; with Fas deletion 1-66) was “no binding” each time.

On to B5, for which, in the test with HA-Fas 1-210:GFP, the binding result is recorded as “no binding”.

With B6, the binding result with HA-Fas 1-210:GFP is “no binding”.
